The test has as its target truncated recombinant mOGT (C-654) (human).

B1: Peptide (…) (peptide)
peptide: YSDSPSTST
With B1, the km for the peptide in the coupled enzyme assay of OGT transglycosylation (double-reciprocal plot; peptide 0.05 to 0.5 mM, UDP-GlcNAc held at 0.5 mM) turned out to be 0.16 mM.

The record behind these values is article PMC3056017.
